Patent US20210032352A1 (ANTERA THERAPEUTICS, published 2021)

T1: human LRP6 ECD, Fc-tagged (human, UniProt O75581 20-1370)
T1 construct: extracellular domain; Bought; also called LRP co-receptor; not shown: Fc tag of the purchased fusion
T1 sequence (looked up): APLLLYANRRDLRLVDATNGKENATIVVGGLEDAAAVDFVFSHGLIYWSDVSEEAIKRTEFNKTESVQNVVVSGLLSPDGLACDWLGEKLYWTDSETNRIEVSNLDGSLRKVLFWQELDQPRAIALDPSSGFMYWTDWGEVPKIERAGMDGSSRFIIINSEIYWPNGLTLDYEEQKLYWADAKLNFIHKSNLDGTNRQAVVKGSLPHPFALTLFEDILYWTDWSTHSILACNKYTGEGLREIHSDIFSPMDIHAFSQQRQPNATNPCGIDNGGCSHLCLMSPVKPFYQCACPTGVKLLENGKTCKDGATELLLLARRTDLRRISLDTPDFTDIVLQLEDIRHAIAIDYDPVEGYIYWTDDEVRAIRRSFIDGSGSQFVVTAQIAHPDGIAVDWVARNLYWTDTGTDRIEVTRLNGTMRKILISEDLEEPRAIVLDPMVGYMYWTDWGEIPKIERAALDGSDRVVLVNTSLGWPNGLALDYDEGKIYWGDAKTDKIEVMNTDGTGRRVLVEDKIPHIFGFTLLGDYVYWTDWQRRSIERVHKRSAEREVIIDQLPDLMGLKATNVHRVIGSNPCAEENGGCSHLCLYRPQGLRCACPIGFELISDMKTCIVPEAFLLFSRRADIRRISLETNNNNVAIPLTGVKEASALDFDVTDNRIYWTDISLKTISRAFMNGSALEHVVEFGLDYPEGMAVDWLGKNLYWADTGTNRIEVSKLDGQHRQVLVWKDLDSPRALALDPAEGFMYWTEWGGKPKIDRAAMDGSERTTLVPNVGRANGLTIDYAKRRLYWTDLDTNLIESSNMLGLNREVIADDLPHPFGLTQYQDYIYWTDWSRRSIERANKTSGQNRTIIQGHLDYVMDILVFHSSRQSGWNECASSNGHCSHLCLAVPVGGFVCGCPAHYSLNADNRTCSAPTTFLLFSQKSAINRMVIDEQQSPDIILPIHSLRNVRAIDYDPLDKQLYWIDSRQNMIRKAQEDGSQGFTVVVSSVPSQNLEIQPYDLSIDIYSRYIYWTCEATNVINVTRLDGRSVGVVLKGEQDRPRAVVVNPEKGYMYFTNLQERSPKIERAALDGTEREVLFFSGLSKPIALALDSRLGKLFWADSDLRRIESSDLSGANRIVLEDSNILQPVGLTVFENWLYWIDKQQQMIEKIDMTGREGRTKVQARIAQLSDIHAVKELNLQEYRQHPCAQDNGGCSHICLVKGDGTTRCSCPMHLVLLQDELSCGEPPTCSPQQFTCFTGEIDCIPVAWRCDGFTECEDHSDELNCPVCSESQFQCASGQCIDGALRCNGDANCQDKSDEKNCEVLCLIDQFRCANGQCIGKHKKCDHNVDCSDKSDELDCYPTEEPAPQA


Assays:
Experiment in all cases: kinetic table (called BLI in paragraph 35); quantity name and unit not printed in the table: KD in M follows from FIG. 12A
FZD2 CRD, Fc-tagged = molecular target: T2, FZD2 CRD, Fc-tagged (human, UniProt Q14332 24-190)
T2 construct: domain: CRD; Bought; not shown: Fc tag of the purchased fusion

FZD1 CRD, Fc-tagged = molecular target: T3, FZD1 CRD, Fc-tagged (human, UniProt Q9UP38 70-250)
T3 construct: domain: CRD; Bought; not shown: Fc tag of the purchased fusion

FZD7 CRD, Fc-tagged = FZD7 CRD, Fc-tagged (human, UniProt O75084 33-185)
[1] = molecular target: T1, human LRP6 ECD, Fc-tagged

T3 sequence (Q9UP38 70-250): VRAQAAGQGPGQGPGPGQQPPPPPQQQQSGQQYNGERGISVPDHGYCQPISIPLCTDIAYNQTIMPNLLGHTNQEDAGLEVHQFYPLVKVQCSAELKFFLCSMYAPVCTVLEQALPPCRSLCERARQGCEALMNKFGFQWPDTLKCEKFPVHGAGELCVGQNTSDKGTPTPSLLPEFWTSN

| Kd (FZD2 CRD, Fc-tagged) | Kd (FZD1 CRD, Fc-tagged) | Kd (FZD7 CRD, Fc-tagged) | Kd [1] | Binder |
| --- | --- | --- | --- | --- |
| 0.15 nM | 0.13 nM | 0.1 nM | 9.7 nM | F^P*+P*-L6^1*+3* (bispecific antibody) chain 1: DIQMTQSPSSLSASVGDRVTITCRASQSVSSAVAWYQQKPGKAPKLLIYSASSLYSGVPSRFSGSRSGTDFTLTISSLQPEDFATYYCQQGVYLFTFGQGTKVEIKGTTAASGSSGGSSSGAEVQLVESGGGLVQPGGSLRLSCAASGFNIGSSSIHWVRQAPGKGLEWVASIYSAFASTSYADSVKGRFTISADTSKNTAYLQMNSLRAEDTAVYYCARYHFPFGFALDYWGQGTLVTVSSLEDKTHTKVEPKTSDKTHTCPPCPAPELLGGPSVFLFPPKPKDTLMISRTPEVTCVVVDVSHEDPEVKFNWYVDGVEVHNAKTKPREEQYNSTYRVVSVLTVLHQDWLNGKEYKCKVSNKALPAPIEKTISKAKGQPREPMVFDLPPSREEMTKNQVSLWCMVKGFYPSDIAVEWESNGQPENNYKTTPPVLDSDGSFFLYSKLTVDKSRWQQGNVFSCSVMHEALHNHYTQKSLSLSPGKSGSETPGTSESATPESGGGDIQMTQSPSSLSASVGDRVTITCRASQSVSSAVAWYQQKPGKAPKLLIYSASSLYSGVPSRFSGSRSGTDFTLTISSLQPEDFATYYCQQYSWGPFTFGQGTKVEIKGTTAASGSSGGSSSGAEVQLVESGGGLVQPGGSLRLSCAASGFNISYSSIHWVRQAPGKGLEWVAYISSYYGYTYYADSVKGRFTISADTSKNTAYLQMNSLRAEDTAVYYCARAHYFPWAGAMDYWGQGTLVTVSS chain 2: DIQMTQSPSSLSASVGDRVTITCRASQSVSSAVAWYQQKPGKAPKLLIYSASSLYSGVPSRFSGSRSGTDFTLTISSLQPEDFATYYCQQGVYLFTFGQGTKVEIKGTTAASGSSGGSSSGAEVQLVESGGGLVQPGGSLRLSCAASGFNIGSSSIHWVRQAPGKGLEWVASIYSAFASTSYADSVKGRFTISADTSKNTAYLQMNSLRAEDTAVYYCARYHFPFGFALDYWGQGTLVTVSSLEDKTHTKVEPKSSDKTHNCPPCPAPELLGGPSVFLFPPKPKDTLMISRTPEVTCVVVDVSHEDPEVKFNWYVDGVEVHNAKTKPREEQYNSTYRVVSVLTVLHQDWLNGKEYKCKVSNKALPAPIEKTISKAKGQPREPQVYTLPPIRELMTSNQVSLSCAVKGFYPSDIAVEWESNGQPENNYKTTPPVLDSDGSFFLVSKLTVDKSRWQQGNVFSCSVMHEALHNHYTQKSLSLSPGKSGSETPGTSESATPESGGGDIQMTQSPSSLSASVGDRVTITCRASQSVSSAVAWYQQKPGKAPKLLIYSASSLYSGVPSRFSGSRSGTDFTLTISSLQPEDFATYYCQQYYWPITFGQGTKVEIKGTTAASGSSGGSSSGAEVQLVESGGGLVQPGGSLRLSCAASGFNISSYYIHWVRQAPGKGLEWVASIYSSYGYTSYADSVKGRFTISADTSKNTAYLQMNSLRAEDTAVYYCARTVRGSKKPYFSGWAMDYWGQGTLVTVSS |
| 0.084 nM | 0.09 nM | 0.027 nM | 8.2 nM | F^P*+P*-L6^1+3 (bispecific antibody) knob: DIQMTQSPSSLSASVGDRVTITCRASQSVSSAVAWYQQKPGKAPKLLIYSASSLYSGVPSRFSGSRSGTDFTLTISSLQPEDFATYYCQQGVYLFTFGQGTKVEIKGTTAASGSSGGSSSGAEVQLVESGGGLVQPGGSLRLSCAASGFNIGSSSIHWVRQAPGKGLEWVASIYSAFASTSYADSVKGRFTISADTSKNTAYLQMNSLRAEDTAVYYCARYHFPFGFALDYWGQGTLVTVSSLEDKTHTKVEPKTSDKTHTCPPCPAPELLGGPSVFLFPPKPKDTLMISRTPEVTCVVVDVSHEDPEVKFNWYVDGVEVHNAKTKPREEQYNSTYRVVSVLTVLHQDWLNGKEYKCKVSNKALPAPIEKTISKAKGQPREPMVFDLPPSREEMTKNQVSLWCMVKGFYPSDIAVEWESNGQPENNYKTTPPVLDSDGSFFLYSKLTVDKSRWQQGNVFSCSVMHEALHNHYTQKSLSLSPGKSGSETPGTSESATPESGGGEVQLVESGGGLVQPGGSLRLSCAASGFNISYSSIHWVRQAPGKGLEWVAYISSYYGYTYYADSVKGRFTISADTSKNTAYLQMNSLRAEDTAVYYCARAHYFPWAGAMDYWGQGTLVTVSSGGGGSDIQMTQSPSSLSASVGDRVTITCRASQSVSSAVAWYQQKPGKAPKLLIYSASSLYSGVPSRFSGSRSGTDFTLTISSLQPEDFATYYCQQYYWPITFGQGTKVEIK hole: DIQMTQSPSSLSASVGDRVTITCRASQSVSSAVAWYQQKPGKAPKLLIYSASSLYSGVPSRFSGSRSGTDFTLTISSLQPEDFATYYCQQGVYLFTFGQGTKVEIKGTTAASGSSGGSSSGAEVQLVESGGGLVQPGGSLRLSCAASGFNIGSSSIHWVRQAPGKGLEWVASIYSAFASTSYADSVKGRFTISADTSKNTAYLQMNSLRAEDTAVYYCARYHFPFGFALDYWGQGTLVTVSSLEDKTHTKVEPKSSDKTHNCPPCPAPELLGGPSVFLFPPKPKDTLMISRTPEVTCVVVDVSHEDPEVKFNWYVDGVEVHNAKTKPREEQYNSTYRVVSVLTVLHQDWLNGKEYKCKVSNKALPAPIEKTISKAKGQPREPQVYTLPPIRELMTSNQVSLSCAVKGFYPSDIAVEWESNGQPENNYKTTPPVLDSDGSFFLVSKLTVDKSRWQQGNVFSCSVMHEALHNHYTQKSLSLSPGKSGSETPGTSESATPESGGGEVQLVESGGGLVQPGGSLRLSCAASGFNISSYYIHWVRQAPGKGLEWVASIYSSYGYTSYADSVKGRFTISADTSKNTAYLQMNSLRAEDTAVYYCARTVRGSKKPYFSGWAMDYWGQGTLVTVSSGGGGSDIQMTQSPSSLSASVGDRVTITCRASQSVSSAVAWYQQKPGKAPKLLIYSASSLYSGVPSRFSGSRSGTDFTLTISSLQPEDFATYYCQQYSWGPFTFGQGTKVEIK |
